# Measured values from the supplement of paper PMC10126150.
# ± gives the standard deviation of the averaged measurements.
# System: ATP
# Experiment: switch fluorescence ratio, 500 uM ATP over buffer (Cy3 cluster intensity, sum of 5 cycles each) (fold (ratio)); higher = stronger signal-on switching upon ATP binding; sequences stand for … in TCGTCGGCAGCGTCAGATGTGTATAAGAGACAGTTTTTTTTTTTTTTTTTTTTTTTTT…TC
# Settings: aptamer strand: ATP DNA aptamer (quencher-CACCTGGGGGAGTATTGCGGAGGAAGG + anchor), 100 nM annealed; ATP concentration: 500 uM
# Summary of the method: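 Clusters carrying Cy3-labelled switching strands on a modified Illumina MiSeq flow-cell were annealed to 100 nM quencher-labelled ATP aptamer and imaged in selection buffer. They were imaged again after 15 min with 500 uM ATP at 22 °C, over five buffer/ATP cycles with NaOH stripping and re-annealing in between. For each cluster, the fluorescence ratio is the summed Cy3 intensity of the target cycles divided by that of the buffer cycles, averaged per switch-domain sequence. Clusters outside 100-1000 RFU were left out.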
# 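Note: ATP exposure 15 min at 22 °C before imaging.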
row,Sequence,switch fluorescence ratio
1,TGGGGCCGAT,1.02 ± 0.021
2,TTACATGTAG,1.04 ± 0.013
3,TGTTAATATT,0.989 ± 0.018
4,TTGCCAGGGA,0.995 ± 0.014
5,TCTTGTTATT,0.9985 ± 0.0054
6,ATTATACCTT,1.182 ± 0.011
7,CGCGTTTTTG,1.01 ± 0.014
8,TGTTGTTGGG,0.9946 ± 0.0087
9,TAATGCCTGT,0.979 ± 0.021
10,TTAATTGGTG,1.021 ± 0.009
11,GTAAGAGTGC,1.03 ± 0.026
12,TTTTTGCTTT,1.06 ± 0.099
13,TTCCAATTAG,0.968 ± 0.059
14,TTCAATGTTT,0.978 ± 0.049
15,ACGCTCCTGG,1.15 ± 0.034
16,CTGCGCAAGG,6.27 ± 0.014
17,TTTTGTCACT,1.034 ± 0.0031
18,CTGTCTCAAG,0.97 ± 0.059
19,GGGTAGGTTT,1.02 ± 0.059
20,AGGGTCTTTT,1.03 ± 0.053
21,GTGTTATGCA,1.01 ± 0.021
22,TGTAGAGCCA,1.03 ± 0.035
23,GATGGTATTT,0.9794 ± 0.0062

row,Sequence,switch fluorescence ratio
1,ACTATGGCGG,1.03 ± 0.032
2,ACGGGGTGCA,0.99 ± 0.017
3,GCTTGTACAT,0.982 ± 0.018
4,AGCTTTGGGT,1.01 ± 0.016
5,TCACTATTTT,1.01 ± 0.02
6,GATTCAAGTG,0.96 ± 0.022
7,GCATGGGGTA,1.05 ± 0.051
8,CGGGGCACGC,0.896 ± 0.05
9,AGTGTCGTTT,0.991 ± 0.02
10,TGCTTTAGCG,1.0155 ± 0.00011
11,ATACTGAATT,1.005 ± 0.0065
12,GCTGGTTGCT,0.994 ± 0.039
13,TTACATAATT,1.02 ± 0.044
14,GGGTAAATAG,1.034 ± 0.007
15,GCGGGGGGTG,1.01 ± 0.03
16,TAGCCCGTGG,1.02 ± 0.027
17,TTTCAGTCCC,0.993 ± 0.052
18,TGTTGGAGAG,1.02 ± 0.02
19,TGTAAAACTA,1.02 ± 0.028
20,TAGTGTGTTT,0.9823 ± 0.0095
21,AGGTGGGGGC,1.003 ± 0.0095
22,TGCGGAAGGC,1.11 ± 0.013
23,TAGGATTAAT,0.999 ± 0.012

row,Sequence,switch fluorescence ratio
1,CGTTCAATGG,1.23 ± 0.05
2,TAGATTTTTT,1.02 ± 0.019
3,GGGATCGGGG,0.988 ± 0.019
4,ATGTTTGATG,0.998 ± 0.024
5,GGGAGCGGGT,1.04 ± 0.025
6,AGGGGCGTAC,1.07 ± 0.022
7,GGCTCAGGTA,1.04 ± 0.013
8,TAGGACACGT,1.03 ± 0.012
9,CAAGTATCGG,0.973 ± 0.027
10,ATGAAGAGGG,0.997 ± 0.045
11,TATTTTGTTA,1.01 ± 0.047
12,TCGTACCTTG,1.01 ± 0.025
13,GACACTTGTA,1.02 ± 0.025
14,CACCGGTTCT,1.03 ± 0.011
15,AGTTTCTAGT,0.97 ± 0.043
16,GACAAGGAGG,1.02 ± 0.028
17,GAACGGACAC,1.45 ± 0.015
18,GACGCGGGTC,1.13 ± 0.026
19,ATGGTTCACT,1.023 ± 0.0032
20,TAGGGACTAT,1.02 ± 0.018
21,CGGTTTATTG,1 ± 0.036
22,CAGAGGGCAG,1.02 ± 0.047
23,CAGACCTCGT,1 ± 0.013

row,Sequence,switch fluorescence ratio
1,AAGAAGTCCT,0.983 ± 0.034
2,TTCGTTGTGC,1.01 ± 0.02
3,TCGTATTCGG,0.992 ± 0.025
4,AGCTCGGGTA,0.998 ± 0.025
5,GCATTGAGGT,1 ± 0.013
6,TGAGCGTG,0.9816 ± 0.0078
7,CGGTTGAGTT,1.02 ± 0.04
8,GTGGGATCTG,0.9894 ± 0.008
9,TCGATCGGGT,0.991 ± 0.035
10,AGGACGGGGG,1.02 ± 0.033
11,ATGAGGTTAG,0.947 ± 0.065
12,AACGTTTAAA,1.04 ± 0.1
13,AATAGGTCAT,1.02 ± 0.028
14,CGGCCGGAGT,0.983 ± 0.0086
15,AGTAGTAAGT,1.01 ± 0.012
16,TGGTAGTGAC,1.03 ± 0.064
17,CACGTTTGTT,1.027 ± 0.004
18,TCTTTATCCC,1.18 ± 0.084
19,AGTGTTTAAA,0.969 ± 0.025
20,TATATTACGA,1.03 ± 0.013
21,AGGAAGCTCT,1.03 ± 0.023
22,AAGGAGTTGT,0.951 ± 0.05
23,TTATGGGCGT,1.02 ± 0.02

row,Sequence,switch fluorescence ratio
1,GGGAATGCTA,0.9999 ± 0.0068
2,CTCTACGCCG,0.9875 ± 0.0053
3,GAGGGACTCT,0.964 ± 0.013
4,ACTATGAAAA,1.037 ± 0.0011
5,ACTTGTAATT,0.997 ± 0.026
6,TCGGTATGAA,1.01 ± 0.018
7,AAAACGTGGG,1.02 ± 0.022
8,GAGAGTGCGG,1.04 ± 0.0067
9,TCCGGTTGTC,1.11 ± 0.036
10,CGGCGATCGG,0.99 ± 0.013
11,GAAAGTTTGG,1.01 ± 0.017
12,AAGTACTTTA,1.14 ± 0.013
13,TAGTCTGGGC,0.986 ± 0.037
14,GCGCGCCGGG,1.01 ± 0.027
15,CTATGGGGGT,0.997 ± 0.024
16,AAAGACGCGG,0.992 ± 0.015
17,GGACGAAGGG,1.09 ± 0.018
18,GTGGGTTTTT,1.01 ± 0.032
19,TAGGTGATTT,1.03 ± 0.023
20,AGTACATGAT,1.02 ± 0.025
21,TGGGTAAGTA,0.993 ± 0.012
22,GCAGACCTAT,0.989 ± 0.058
23,TTGAGAGTCT,1.01 ± 0.18

row,Sequence,switch fluorescence ratio
1,GCTATAGCGT,0.9958 ± 0.0063
2,TCTTCGGGGG,1.07 ± 0.032
3,TTTTGATTCT,1.01 ± 0.028
4,TTAGTAAAGA,1.02 ± 0.013
5,AGGTTTGGAT,0.991 ± 0.078
6,CATGGGGGGA,0.994 ± 0.018
7,TTAGTTGA,0.999 ± 0.015
8,GGGAACGTCG,1.011 ± 0.01
9,CTCGAAAAAA,1.05 ± 0.014
10,ATTGAGGATG,1.07 ± 0.17
11,GAGGGGAGAC,1.02 ± 0.048
12,CGAGCATAGG,1.23 ± 0.085
13,TTTAATTCT,0.989 ± 0.022
14,GGGAGGTCAG,0.992 ± 0.035
15,ATGGGCGTAC,1.03 ± 0.054
16,GATTTTGTGG,0.971 ± 0.02
17,AAATGGAACC,1.04 ± 0.065
18,GTGTGCAGTG,0.954 ± 0.01
19,CGGGGGGGTT,1.02 ± 0.034
20,TTTGACTAGG,1.01 ± 0.038
21,TATCACGCAT,1.36 ± 0.018
22,AATTTGGTTA,0.995 ± 0.045
23,TCGGTTGGTT,0.967 ± 0.023

row,Sequence,switch fluorescence ratio
1,TAAAGGGATG,0.956 ± 0.017
2,CGGCTTTTTG,0.991 ± 0.034
3,GTAAATATAG,0.9813 ± 3.7e-05
4,TGATCATATT,1.024 ± 0.0079
5,ATTTTGCCGT,1.02 ± 0.027
6,TGACACTTAA,1.07 ± 0.096
7,TCAAGAAGGT,1 ± 0.018
8,CTTAAATTAT,0.9967 ± 0.0089
9,AAGGGTCAAA,0.985 ± 0.048
10,GACCTGTTTG,0.987 ± 0.017
11,AAAGGGTGCT,1.1 ± 0.015
12,ATGTTTGAAG,0.9844 ± 0.0042
13,TCGAAAGTGT,1 ± 0.025
14,TCGGAATTTT,1.03 ± 0.026
15,AGTCGGGGGC,1.03 ± 0.04
16,AGGTTTTCTC,1.02 ± 0.052
17,AATCGTTGAA,1.01 ± 0.017
18,TACCCCCGTT,1.36 ± 0.041
19,TGACTTTGTG,1.02 ± 0.044
